Data as given in publication PMC2139800 (The Journal of Cell Biology, 1997).

Molecular target: F-actin (unlabeled) (rabbit, UniProt P68135 1-377)
Assay: co-sedimentation

B1: His6–l-afadin-C (aa 1631–1829) (domain or fragment)
chain: DRVRQEEDGRHQEEERVKRDAEEKRRQEEGYYSRLEAERRRQHEEAARRLLEPEEPGLSRPPLPQDYEPPSQSSAPSAPPPPPQRNASYLKTQVLSPDSLFTAKFVAYDDDDEEENYVPAGPNSYSGSAGTTAGTYDAPRDTREKLSRSQDADLPGSSGAPENLTFRERQRLFSQGQDVSDKVKASRKLTELENELNTK
stoichiometry N: ~500 actin molecules per His6–l-afadin-C molecule
